Residue numbers refer to the chain shown, from its start. Names may count otherwise.
T1: feline IL-5 (Kingfisher Biotech; RP1152F) (feline, UniProt O77515 20-134)
T1 construct: Bought recombinant protein; also called fIL-5; fIL5
T1 sequence (looked up): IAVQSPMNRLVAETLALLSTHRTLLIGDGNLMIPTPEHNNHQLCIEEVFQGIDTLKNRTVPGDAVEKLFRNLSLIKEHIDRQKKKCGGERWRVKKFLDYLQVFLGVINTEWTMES

B1: Chimeric 154 (clone 154 variable domains with feline IgG1a and feline kappa constant domains) (antibody, V domains shown)
VH: EVQLVESGGDLVKPGGSLKLSCAASGFTFSNYAMSWVRQTPDKRLEWVATIGSGGHYTYHPDSVKGRFSISRDNAKNTLSLQMSSLKSEDTAMYYCTRETDGYDGMDYWGQGTSVTVSS
VL: DIVMTQSPATLSVTPGDRVSLSCRASQSISDYLYWYQQKSHESPRLLIKYASQSISGIPARFSGSGSGSDFTLSINSVEPEDVGVYYCQNGHSFPYTFGGGTKLEIK
notes: also called 154 chimera
B2: MtxA antibody (felinized clone 154) (antibody, IgG1a, V domains shown)
VH: DVQLVESGGDLVKPGGSLRLTCVGSGFTFSNYAMSWVRQAPGEGLQWVATIGSGGHYTYHPDSVKGRFTISRDNAKNTLYLQMNSLQTEDTASYYCTRETDGYDGMDYWGQGTLVTVSS
VL: EIQMTQSPSSLSASVGDRVTITCRASQSISDYLYWYQQKPGKAPKLLIYYASQSISGVPSRFSGSGSGTDFTLTISSLQPEDFATYYCQNGHSFPYTFGPGTKLEIK
notes: Feline IgG1a (GenBank BAA32229.1) / feline kappa (GenBank ATI97438.1); also called Matrix clone A
B3: MtxB antibody (felinized clone 154) (antibody, IgG1a, V domains shown)
VH: B2 VH
VL: DIVMTQTPLSLSVTPGEPASISCRASQSISDYLYWYLQKPGQSPRRLIYYASQSISGVPDRFSGSGSGTDFTLRISRVEADDVGVYYCQNGHSFPYTFGPGTKLEIK
notes: Feline IgG1a (GenBank BAA32229.1) / feline kappa (GenBank ATI97438.1); also called MatrixB; Matrix B
B4: 1H3-C6 Fab (MtxB HCDR3 variant) (Fab, V domains shown)
VH: B2 VH with D104G, G105P, Y108V
VL: B3 VL
notes: Fab from the MtxB HCDR3 library; the entry named is the parent, the changed CDR is told under detail
B5: 1L2-D1 Fab (MtxB LCDR2 variant) (Fab, V domains shown)
VH: B2 VH
VL: B3 VL with L47I, I48F, Y49F, Y50T, A51E, S54R, I55A
notes: Fab from the MtxB LCDR2 library; the entry named is the parent, the changed CDR is told under detail
B6: 1L2-D12 Fab (MtxB LCDR2 variant) (Fab, V domains shown)
VH: B2 VH
VL: B3 VL with L47I, I48F, Y49F, Y50G, A51Y, Q53G, S54T, I55K
notes: as for B5
B7: 1L2-E7 Fab (MtxB LCDR2 variant) (Fab, V domains shown)
VH: B2 VH
VL: B3 VL with L47I, I48F, Y49F, Y50A, A51S, Q53L, S54Y, I55D
notes: as for B5
B8: 1L2-H7 Fab (MtxB LCDR2 variant) (Fab, V domains shown)
VH: B2 VH
VL: B3 VL with L47V, I48F, Y49F, Y50T, A51V, Q53G, S54G, I55V
notes: as for B5
B9: 1L2a-H2 Fab (MtxB LCDR2 variant) (Fab, V domains shown)
VH: B2 VH
VL: B3 VL with L47V, I48F, Y50T, A51D, Q53A, S54E, I55V
notes: as for B5
B10: 2L2-G12 Fab (MtxB LCDR2 variant) (Fab, V domains shown)
VH: B2 VH
VL: B3 VL with L47V, I48F, Y49F, Y50T, A51P, Q53D, I55A
notes: Fab from the MtxB LCDR2 library
B11: MtxB Fab (Fab, V domains shown)
VH: B2 VH
VL: B3 VL
notes: Fab made in E. coli from the phagemid: heavy chain variable domain, CH1 and partial hinge; light chain of MtxB; also called Matrix B; original MtxB Fab
B12: MtxB N106Q (LCDR3) variant (antibody, V domains shown)
VH: B2 VH
VL: B3 VL with N90Q
notes: Feline IgG with feline kappa constant domain
B13: MtxB N106S (LCDR3) variant (antibody, V domains shown)
VH: B2 VH
VL: B3 VL with N90S
notes: as for B12

Each binder was assayed against T1, feline IL-5 (Kingfisher Biotech; …) (assay: SPR Biacore T200, IgG captured on goat anti-feline IgG-Fc CM5 chip, feline IL-5 as analyte).
Experimental: (§1) MtxA antibody and MtxB antibody had the highest affinity to feline IL-5 as determined by surface plasmon resonance (SPR) using a Biacore T200 instrument. Goat anti-feline IgG-Fc fragment specific (Jackson ImmunoResearch; 102-005-008) at 30 μg/ml in 10 mM acetate, pH 5.0 was immobilized onto CM5 sensor chip (Cytiva; 29104988) with NHS coupling at 10 μL/min for 420 seconds and then other sites blocked with ethanolamine at 10 μL/min for 420 seconds. The anti-feline IL-5 antibodies were captured at 2 μg/ml onto the anti-feline IgG CM5 chip for 60 sec at 10 μl/min. […] The kinetics of the feline IL-5 binding to the antibodies is shown below in FIG. 2. In addition, an IL-5 receptor blocking assay was completed by capturing biotinylated receptors on a Series S CAP chip and Biotin CAPture reagent (Cytiva). For this assay, a fusion protein was generated containing the extracellular domain of feline IL-5Rα (XP_011278466.1) linked to a 2X-Gly-Gly-Gly-Ser (SEQ ID NO:89) linker-linked to the human IgG1 Fc linked to the AviTag sequence (FIG. 1B, SEQ ID NO:2) and subcloned into the pcDNA3.4 mammalian expression vector. This construct was expressed in CHO-S cells and purified with protein A chromatography followed by a polishing chromatography step with SEC. The purified recombinant protein was biotinylated in vitro using the BirA biotin ligase. Antibodies were titrated in running buffer (1×PBSP+, Cytiva) and pre-incubated with 50 nM IL-5 (Kingfisher) at multiple molar ratios. Binding was assessed by injecting these samples over the captured receptor for 180 s. The Rmax was used to calculate the inhibition percent by dividing the Rmax of the pre-mixed samples by an average of the IL-5-only Rmax samples that were collected throughout the assay. The ability of each antibody to block binding of feline IL5 was measured (Table 2).
With B1 the Kd was 129 pM, the koff was 3.56e-05 s⁻¹ and the kon was 276000 M⁻¹ s⁻¹. B2 was tested, and the Kd was 178 pM, the koff was 1.49e-05 s⁻¹ and the kon was 87100 M⁻¹ s⁻¹. B3 gave a Kd of 5020 pM, a koff of 0.000548 s⁻¹ and a kon of 141000 M⁻¹ s⁻¹.

Each binder was assayed against T1, feline IL-5 (Kingfisher Biotech; …) (assay: ELISA on plate-coated feline IL-5, Fab at 65 ng/ml dimerized with goat anti-feline IgG F(ab')2, anti-goat-HRP detection).
With B4 the “Normalized fIL-5 ELISA value, 65 ng/ml Fab” value (from here on “Normalized fIL-5 ELISA value”) was 0.967. B5 was tested, and the “Normalized fIL-5 ELISA value” value was 0.492. In the case of B6, the “Normalized fIL-5 ELISA value” value is reported as 0.303. For B7, the “Normalized fIL-5 ELISA value” value was 0.366. For B8, the “Normalized fIL-5 ELISA value” value was 0.283. For B9, the “Normalized fIL-5 ELISA value” value was 0.559. With B10 the “Normalized fIL-5 ELISA value” value was 0.251. In the case of B11, the “Normalized fIL-5 ELISA value” value is reported as 0.165.

Each binder was assayed against T1, feline IL-5 (Kingfisher Biotech; …) (assay: SPR Biacore T200, IgG captured on goat anti-feline IgG CM5 chip, feline IL-5 as analyte).
Text: (§2) MABS, 11:239-264). These post-translational modifications can be particularly problematic when they reside in the CDRs. […] DNA constructs were synthesized (GeneArt) encoding the MtxB clone with substitutions to eliminate the potential sequence liabilities. For the NG site in LCDR3, the Asn (position 106) was substituted with either a Gln or a Ser and for the Met in HCDR3 (position 115), a Len was substituted. The DNA constructs with the light chain variants were fused to the feline kappa constant domain. These DNA constructs were subcloned into the pcDNA3.4 expression vector (ThermoFisher) and expressed with the ExpiCHO system (ThermoFisher). The antibodies were purified with mAbSelect SuRe chromatography (Cytiva) and buffer exchanged into 20 mM sodium acetate, 136 mM sodium chloride, pH 5.5. The variants were tested in an SPR experiment using a Biacore T200 instrument to measure their affinity to feline IL-5 (Kingfisher Biotech; RP1152F). Goat anti-feline IgG was immobilized onto a Series S CM5 sensor chip (Cytiva) and the original MtxB clone and the variants containing the amino acid substitutions were captured on the chip at 5 μg/ml.
DNA constructs (GeneArt) were generated for the two heavy chain variants with the feline IgG1a constant domain along with the three light chain variants with the feline kappa constant domain were all subcloned into pcDNA 3.4 (ThermnoFisher Scientific). Each combination of the heavy and light chain variants was transfected into ExpiCHO cells to generate conditioned medium. The feline IgGs were purified using MabSelect SuRe chromatography and buffer exchanged into 20 mM sodium acetate, 136 mM sodium chloride, pH 5.5. The binding affinities of the different feline IgGs to feline IL-5 was determined using the same SPR method described in the removing potential sequence liabilities in LCDR3 and HCDR3 section and are shown below in Table 7.
Binder B1 has a Kd of 91.4 pM, a koff of 3.38e-05 s⁻¹ and a kon of 369000 M⁻¹ s⁻¹. In the case of B2, the Kd is reported as 273 pM, the koff is reported as 6.65e-05 s⁻¹ and the kon is reported as 242000 M⁻¹ s⁻¹.

Target: T1, feline IL-5 (Kingfisher Biotech; …)
Assay: as above
Remark: another data set of the same source
Text: as §2, with “Asparagine deamidation for asparagine residues and oxidation at methionine residues can negatively impact the potency and the stability of an antibody (Xu et al., 2019. MABS,” for “MABS,”
In the case of B3, the Kd is reported as 5900 pM, the koff is reported as 0.00053 s⁻¹ and the kon is reported as 90000 M⁻¹ s⁻¹. Work on B12 yielded a Kd of 560 pM, a koff of 8.6e-05 s⁻¹ and a kon of 150000 M⁻¹ s⁻¹. For B13, the Kd was 3600 pM, the koff was 0.00027 s⁻¹ and the kon was 75000 M⁻¹ s⁻¹.

These binders were tested against T1, feline IL-5 (Kingfisher Biotech; …) (assay: Biacore, antibody pre-incubated with 50 nM IL-5 at 1:1, over captured biotinylated IL-5Rα-Fc-AviTag (competitor m3)).
Experimental: as §1
With B1 the “% blocking 1:1” value was 98.2%. In the case of B2, the “% blocking 1:1” value is reported as 92.5%. In the case of B3, the “% blocking 1:1” value is reported as 74.2%.

These binders were tested against T1, feline IL-5 (Kingfisher Biotech; …) (assay: ELISA, Fab culture supernatant on plate-coated feline IL-5, anti-feline Fab'2-HRP detection).
Text: Fragments containing the pre-selected CDR pools from these libraries were randomly paired by overlap PCR to create a new library incorporating mutations throughout all targeted CDRs. The phage propagated following round 4 of selection were used for PCR amplication of LCDR2, LCDR3 and HCDR3. The PCR-amplified fragment containing the light chain and the heavy chain were ligated into a phagemid vector and transformed into E. coli. The number of transformants was approximately 2E+10. Library plasmid DNA was purified using a midi-prep purification method. Ten pg of the library plasmid DNA was transformed into E. coli for growth and propagation of the Fab phage. After overnight phage production, phage was precipitated from the culture supernatant and resuspended in blocking buffer (1% BSA/PBS). The phage were treated at 58° C. for 10 minutes to remove unstable clones prior to the selections. The input phage was incubated for 30 minutes in a blocked ELISA plate coated with feline IL-5. The ELISA plate was washed with PBS, pH 7.4 followed by acid elution of the bound phage. The output phage was then used to infect E. coli for propagation for the next round of selection. For rounds 1, 2, 3 and 4, the ELISA plates were coated with 10 μg/ml, 8 μg/ml, 5 μg/ml and 1 μg/ml, respectively. The number of washes after each round were 3, 5, 10 and 10 for rounds 1, 2, 3 and 4, respectively. Ninety-three clones from the round 4 output were grown overnight for Fab production and tested for binding to feline IL-5 in an ELISA format. For this assay, supernatants from the overnight cultures were incubated in Immulon 4 HBX high-binding plate that was coated with 10 μg/ml feline IL-5 (Kingfisher Biotech; Cat #RP1152F) and blocked with 1% bovine serum albumin in phosphate buffered saline (PBS), pH 7.4. The controls added included the MtxB clone and clone 1H3-C6 which was the top affinity clone from the first stage A1 step. The Fab binding to the feline IL-5 was detected with anti-feline Fab′₂-HRP conjugate.
The results are shown in Table 8A which compares relative Fab binding affinity to feline IL-5 by Fabs disclosed herein. IL-5 binding was detected with anti-feline Fab′₂-HRP conjugate. Differences in CDR amino acids compared to the MtxB are underlined. The data in the last column are absorbance following addition of substrate to detect the HRP conjugate.
With B4 the “fIL5 Fab (ELISA absorbance)” value was 0.1 absorbance. For B11, the “fIL5 Fab (ELISA absorbance)” value was 0.054 absorbance.
